From the supplement of paper PMC9170038

System: MS2 coat protein
Assay: apparent KD of MS2 coat protein; designed switch direction (-1 OFF switch, 1 ON switch): 1; higher = weaker reporter binding
How it was run: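 Designed RNA switches with common flanks were transcribed on Illumina chips by stalled E. coli RNA polymerase and titrated with SNAP-549-labelled MS2 coat protein, from 0.7 or 1.5 nM doubling to 3 µM, in Tris-HCl pH 7.5 buffer with KCl, MgCl2, BSA, DTT, tRNA and Tween-20. Steps lasted 0.8–1.5 h (lowest) to 10–20 min (highest). Titrations ran without input, with 200 uM small-molecule ligand, or with an oligonucleotide input. Normalised cluster fluorescence was curve-fitted, and apparent KD is the per-design median over clusters.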

[1] = Eterna round: R95, input ligand: FMN 200 uM
[2] = Eterna round: R95, input ligand: microRNA oligo, concentration not stated
[3] = Eterna round: R95, input ligand: none
[4] = input ligand: microRNA oligo, concentration not stated

| Sequence | apparent KD of MS2 coat protein [1] | apparent KD of MS2 coat protein [2] | apparent KD of MS2 coat protein [3] | apparent KD of MS2 coat protein (input ligand: FMN 200 uM) | apparent KD of MS2 coat protein [4] | apparent KD of MS2 coat protein (input ligand: none) |
| --- | --- | --- | --- | --- | --- | --- |
| UUUAGUUGCGGGCAGGAUAUGUAUUAAAAUACAUGAGGAUCACCCAUGUGUGGGUAUAACACCCAACAGAAGGGCCAAUCGCGAC [Laonerce - 12] (puzzle: Same State 2) | 17.2 nM | 154 nM | 165 nM | – | – | – |
| AAAACAGGCUUCCUCUCGUCUCAAAAUGCACAUGAGGAUCACCCAUGUAAAACCCAGCGUAGUGUCGCACUACCUGA [Laresoar] (puzzle: Sensor for hsa-mir-208a) | 161 nM | 23.4 nM | 126 nM | – | – | – |
| UACAUACGCGGAGGAUAUGGGCGAGGCGCGGAGGUCCGCGCCAAAACAUGAGGAUCACCCAUGUCCCAGAAGGCCGCACAAACU [Atusso] (Eterna round: R96, puzzle: Same State NG 2) | – | – | – | 15.1 nM | 66.4 nM | 86.6 nM |
| AUGGUCAAGUGUGAGGAUAUCCAUGCUCCCACAUGAGGAUCACCCAUGUCUUAAAGGGCGUAAAGGGAGAAGGUACGAACGCCAC [Edatxein] (Eterna round: R96, puzzle: Same State 2) | – | – | – | 73.1 nM | 49.2 nM | 80.6 nM |
| GUGGUCAGACAUGAGGAUCACCCAUGUGGAAUAAAUAACGUACAGGAUAUGCAAUAUAGGAUAUAGUAGAAGGGUAGAUUGGUG (Eterna round: R96, puzzle: Same State NG 3) | – | – | – | 116 nM | 95 nM | 123 nM |
| GGAGCCGGCACCGAGGAUAUUCAUAUUAAAACAUGAGGAUCACCCAUGUACAGGAGAACCUGUUGGGAGAAGGCGGAUCGGCUCG [Xeonanis - 25] (puzzle: Same State 2) | 29.9 nM | 296 nM | 437 nM | – | – | – |
| AAGUUACUAUCUCAGGAUAUCAUGUCAAAGACAUGAGGAUCACCCAUGUACCAGGAAACUGGUUAUGAGAAGGGAGAUAGUAACA [Mat - Same State 2 - Mod - D50] (puzzle: Same State 2) | 143 nM | 134 nM | 1400 nM | – | – | – |
| GGAGCCGGUACUGAGGAUAUUCAUAUUAAAACAUGAGGAUCACCCAUGUAGGCCAGAAGGCCUUGGGAGAAGGCGGACCAGCUCG [Atgexeedri - 1] (Eterna round: R96, puzzle: Same State 2) | – | – | – | 27.5 nM | 302 nM | 417 nM |
| AGAUGUUAAUCAGGAUAUGGGCACAUGAGGAUCACCCAUGUAAAUUCGAUACUAUGUGGAGACGUCUAGAAGGGAUGGCUAACA [SameState NG2 #84] (Eterna round: R96, puzzle: Same State NG 2) | – | – | – | 127 nM | 82.2 nM | 137 nM |
| ACUUGCUUUUUGCUCGUAUAUUGUCCGUUACAUGAGGAUCACCCAUGUGUGUAUUGUGUGUUGUUUUUGAUACGUGU [JR_SHM208A_Sub070] (puzzle: Sensor for hsa-mir-208a) | 56 nM | 62.8 nM | 74.2 nM | – | – | – |
| AAGAAACAUGAGGAUCACCCAUGUGUAAAUAUGGGAGGAUAUACAAGGACGUAAGUCAAGGUAGAAGGCCUAAGAA [Mat - Same State 1 - Meechl mod - D137] (Eterna round: R96, puzzle: Same State 1) | – | – | – | 31 nM | 155 nM | 234 nM |
| AGUAUACAUGAGGAUCACCCAUGUCAACGUAGUCGAGGAUAUGGGCAGCCGUGAGGCGUACUAGAAGGCGAAGAGA [Mat - Same State 1 - Mod of JL - D7] (puzzle: Same State 1) | 48.9 nM | 135 nM | 101 nM | – | – | – |
| UGUUAACAUGAGGAUCACCCAUGUCAAAUGAAGCGAGGAUAUGGAAAGUAAUAAGAUGAACUAGAAGGUGUAGUAG [Altered State 1-20 - Jieux - Same State 1] (puzzle: Same State 1) | 37.6 nM | 59.4 nM | 62 nM | – | – | – |
| GGGCUCUACGGAGGAUAUUCAACACAUGAGGAUCACCCAUGUCAGCCUCCCUGAUCCAGGGAAGCGAAGAAGGCUGCGAGGACG [Eternabot solution 35] (Eterna round: R96, puzzle: Same State NG 2) | – | – | – | 29.1 nM | 21.8 nM | 34.5 nM |
| GCUGGAACUCACAUGAGGAUCACCCAUGUUCCGGAAACGGCACAGGAUAUCUGUCCGAAAAGGUCAGAGAAGGGUGGAACCAGC [Fiskers NG3ss - 88] (Eterna round: R96, puzzle: Same State NG 3) | – | – | – | 189 nM | 43.5 nM | 90.4 nM |
| AUUUAACAAGCUUUUUGCUCGUCUUAUAAACAUGAGGAUCACCCAUGUAAUAGCGUGAGAGUAAAUAAAUUAAUAAU [JMF 97] (puzzle: Sensor for hsa-mir-208a) | 14.4 nM | 46.1 nM | 12.2 nM | – | – | – |

| Sequence | apparent KD of MS2 coat protein [1] | apparent KD of MS2 coat protein [2] | apparent KD of MS2 coat protein [3] | apparent KD of MS2 coat protein (input ligand: FMN 200 uM) | apparent KD of MS2 coat protein [4] | apparent KD of MS2 coat protein (input ligand: none) |
| --- | --- | --- | --- | --- | --- | --- |
| CUAUCUACAGGUUGCAGUGCUCGUCUUAUACAUGAGGAUCACCCAUGUUAUAGCCCGGUGCUUGCGCUGGGCUGACC [JL ViennaUCT Tearor mod 1] (puzzle: Sensor for hsa-mir-208a) | 33.7 nM | 15.6 nM | 33.6 nM | – | – | – |
| GCUUGACAUGAGGAUCACCCAUGUCAUGCGGACACAGGAUAUCGUGGCCUGAAGCCGUCAUGAGAAGGGUGACCAA [Bibiedce] (puzzle: Same State 1) | 28.3 nM | 17.3 nM | 17.6 nM | – | – | – |
| GCUUGCGACGCAGGAUAUGGGUGCCUGUACAUGAGGAUCACCCAUGUUAAGGAACGGAUUACGUCUCAGAAGGGCGUGGCAGGC [Ceerce Mod] (Eterna round: R96, puzzle: Same State NG 2) | – | – | – | 37.1 nM | 31.1 nM | 1250 nM |
| AGCACGAUUCGAGGAUAUGAGUCACAUGAGGAUCACCCAUGUCUAAUGGAUGGGACGGCCCAACCUCAGAAGGCGAUACCGGCA [Eternabot solution 24] (Eterna round: R96, puzzle: Same State NG 2) | – | – | – | 392 nM | 307 nM | 338 nM |
| GGGAGACAUGAGGAUCACCCAUGUGGGAGGGAACGAGGAUAUGUAAGGAGAAAGAAUAGAACAGAAGGCGUAGGUG [JR_SS1_Sub021] (puzzle: Same State 1) | 35.8 nM | 55.5 nM | 60.8 nM | – | – | – |
| CGUCGUUUGAUAGGAUAUCGCUAUACAUGAGGAUCACCCAUGUUUACCACGCUGGUUUUUCUUUCCGAGAAGGAUUCUGAUGUU [salish99_SSNG02_r04_022] (Eterna round: R96, puzzle: Same State NG 2) | – | – | – | 30.9 nM | 23.8 nM | 33.5 nM |
| UAGAGAGGAAGCGAGGAUAUCGUGUUAGGUACAUGAGGAUCACCCAUGUUGUAGGUAGAGGUAGGCGAGAAGGCGCAGGAGAGGU [JR_SS2_Sub094] (puzzle: Same State 2) | 33.4 nM | 38.8 nM | 41.4 nM | – | – | – |
| AACAAUCUAUCUGAGGAUAUCAUGAAAUAAACAUGAGGAUCACCCAUGUGCAGGAAAACUGCAUAUGAGAAGGCAGUUAGAUUGA [salish99_ss2_r3_053] (puzzle: Same State 2) | 45.5 nM | 612 nM | 568 nM | – | – | – |
| AGUCCAGCCUGAGCUGGACAAAAGCAUGUACAUGAGGAUCACCCAUGUUCAUGUACAAGCUUUUUGCUCGUCUUAGA [salish99_208a_r3_059] (puzzle: Sensor for hsa-mir-208a) | 709 nM | 15.4 nM | 732 nM | – | – | – |
| GUUACAUGAGGAUCACCCAUGUAUGUGUGGGAGUAAGUGUCUUAGGAUAUCUAUCAUUUUAUUUAAGAGAAGGAAGAUUGUUGU [JMF's solution 93] (Eterna round: R96, puzzle: Same State NG 3) | – | – | – | 121 nM | 77.4 nM | 111 nM |
| UAUGCACAUGAGGAUCACCCAUGUGAUAGAAUCACAGGAUAUCACCUCGGACGUGCGAUGUGAGAAGGGUGGUCGU [Same State 1 - Mod of Vinnie Anrelari v.4] (puzzle: Same State 1) | 150 nM | 63.1 nM | 124 nM | – | – | – |
| UGGUACAUGGGAGGAUAUCAUGUAGAAACAUGAGGAUCACCCAUGUAGGUGGCACGAUUCGUGAAUGAGAAGGCCCAUGUACCU [JL SSNG1 3.61] (Eterna round: R96, puzzle: Same State NG 2) | – | – | – | 312 nM | 225 nM | 376 nM |
| UUUACAUUACGAGGAUAUCAAUUAUUUCAUGUUUGAGAAGGCGUUUUUUUUAUUACCUUACAUGAGGAUCACCCAUGUUUCAUU [JR_SSNG1_Sub042] (Eterna round: R96, puzzle: Same State NG 1) | – | – | – | 19.4 nM | 18.4 nM | 25.5 nM |
| AAAAGAAACACAGGAUAUACCGCACUUAACGCGGUAGAAGGGUGGGACAUGAGGAUCACCCAUGUGGCCUGAGCACCAGGCCGC [Orgele] (Eterna round: R96, puzzle: Same State NG 1) | – | – | – | 47 nM | 5.38 nM | 21.8 nM |
| GUAUCUUCAGGUUGCAAUGCUCGUCGGAUACAUGAGGAUCACCCAUGUUAUUAACCUGUGCUUGCGCGGGUAUGAUU [Photon Torp-01] (puzzle: Sensor for hsa-mir-208a) | 21.8 nM | 32.5 nM | 23.3 nM | – | – | – |
